{"source": "paper PMC3094755", "about": "“The DNA-Binding Domain of Human PARP-1 Interacts with DNA Single-Strand Breaks as a Monomer through Its Second Zinc Finger”", "settings_in_all_cases": "protein: recombinant; label: fluorescein-dT at T8; single-chain dumbbell, 18 bp with central nick, two tetraloops", "key": {"[1]": {"molecular_target": "T1, PARP-1 F1+F2 (24-kDa DBD) (Homo sapiens, UniProt P09874 1-214)", "T1 sequence (P09874 1-214)": "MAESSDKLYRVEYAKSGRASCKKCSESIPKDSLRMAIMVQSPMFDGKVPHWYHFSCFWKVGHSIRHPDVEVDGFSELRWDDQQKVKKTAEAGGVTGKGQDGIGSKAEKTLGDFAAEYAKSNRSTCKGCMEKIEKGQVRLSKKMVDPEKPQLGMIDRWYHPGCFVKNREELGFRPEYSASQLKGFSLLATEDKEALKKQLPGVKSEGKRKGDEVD", "assay": "fluorescence anisotropy; 50; 50 mM Tris-HCl pH 7.0, 150 uM ZnSO4, 4 mM DTT, 25 C; NaCl 0-200 mM (T2, as in cof; 10 nM DNA) or 25 mM (T3 mutants; 25 nM DNA)"}, "PARP-1 F2 [2]": {"molecular_target": "T2, PARP-1 F2 (Homo sapiens, UniProt P09874 103-214)", "T2 sequence (P09874 103-214)": "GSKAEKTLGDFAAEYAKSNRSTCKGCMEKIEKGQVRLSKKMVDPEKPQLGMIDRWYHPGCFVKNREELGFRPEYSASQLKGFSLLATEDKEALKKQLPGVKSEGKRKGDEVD", "assay": "fluorescence anisotropy; 50; 50 mM Tris-HCl pH 7.0, 150 uM ZnSO4, 4 mM DTT, 25 C; NaCl 0-200 mM (T2, as in cof; 10 nM DNA) or 25 mM (T3 mutants; 25 nM DNA)"}, "[3]": {"molecular_target": "T1, PARP-1 F1+F2 (24-kDa DBD)", "assay": "fluorescence anisotropy; 150; 50 mM Tris-HCl pH 7.0, 150 uM ZnSO4, 4 mM DTT, 25 C; NaCl 0-200 mM (T2, as in cof; 10 nM DNA) or 25 mM (T3 mutants; 25 nM DNA)"}, "[4]": {"molecular_target": "T1, PARP-1 F1+F2 (24-kDa DBD)", "assay": "fluorescence anisotropy; 0 mM NaCl; tight site (KD1); FA: 50 mM Tris-HCl pH 7, 150 uM ZnSO4, 4 mM DTT, 0-200 mM NaCl, 25 C, 10 nM DNA (mutants 25 nM DNA, 25 mM NaCl); EMSA: 50 mM Tris-HCl pH 7.4, 150 uM ZnSO4, 4 mM DTT, 10% glycerol, RT incubation, gel at 4 C; NMR complexes: 50 mM Tris pH 7.0, 150 uM ZnSO4, 4 mM DTT, 37 C"}, "PARP-1 F2 K131I": {"molecular_target": "PARP-1 F2 K131I (Homo sapiens, UniProt P09874 103-214, K131I)", "sequence (P09874 103-214 K131I)": "as the sequence (P09874 103-214) above, with K29I counted along it", "assay": "fluorescence anisotropy; 25 mM NaCl, one-site fit; 50 mM Tris-HCl pH 7.0, 150 uM ZnSO4, 4 mM DTT, 25 C; NaCl 0-200 mM (T2, as in cof; 10 nM DNA) or 25 mM (T3 mutants; 25 nM DNA)"}, "PARP-1 F2 K142I": {"molecular_target": "PARP-1 F2 K142I (Homo sapiens, UniProt P09874 103-214, K142I)", "sequence (P09874 103-214 K142I)": "as the sequence (P09874 103-214) above, with K40I counted along it", "assay": "fluorescence anisotropy; 25 mM NaCl, one-site fit; 50 mM Tris-HCl pH 7.0, 150 uM ZnSO4, 4 mM DTT, 25 C; NaCl 0-200 mM (T2, as in cof; 10 nM DNA) or 25 mM (T3 mutants; 25 nM DNA)"}, "PARP-1 F2 K141I/K142I": {"molecular_target": "PARP-1 F2 K141I/K142I (Homo sapiens, UniProt P09874 103-214, K141I;K142I)", "sequence (P09874 103-214 K141I/K142I)": "as the sequence (P09874 103-214) above, with K39I, K40I counted along it", "assay": "fluorescence anisotropy; 25 mM NaCl; apparent, one-site model; FA: 50 mM Tris-HCl pH 7, 150 uM ZnSO4, 4 mM DTT, 0-200 mM NaCl, 25 C, 10 nM DNA (mutants 25 nM DNA, 25 mM NaCl); EMSA: 50 mM Tris-HCl pH 7.4, 150 uM ZnSO4, 4 mM DTT, 10% glycerol, RT incubation, gel at 4 C; NMR complexes: 50 mM Tris pH 7.0, 150 uM ZnSO4, 4 mM DTT, 37 C"}, "[5]": {"molecular_target": "T1, PARP-1 F1+F2 (24-kDa DBD)", "assay": "fluorescence anisotropy; 100; 50 mM Tris-HCl pH 7.0, 150 uM ZnSO4, 4 mM DTT, 25 C; NaCl 0-200 mM (T2, as in cof; 10 nM DNA) or 25 mM (T3 mutants; 25 nM DNA)"}, "PARP-1 F2 [6]": {"molecular_target": "T2, PARP-1 F2", "assay": "fluorescence anisotropy; 100; 50 mM Tris-HCl pH 7.0, 150 uM ZnSO4, 4 mM DTT, 25 C; NaCl 0-200 mM (T2, as in cof; 10 nM DNA) or 25 mM (T3 mutants; 25 nM DNA)"}, "[7]": {"molecular_target": "T3, DNA ligase III alpha zinc finger (DL3) (UniProt P49916-3 1-117)", "T3 sequence": "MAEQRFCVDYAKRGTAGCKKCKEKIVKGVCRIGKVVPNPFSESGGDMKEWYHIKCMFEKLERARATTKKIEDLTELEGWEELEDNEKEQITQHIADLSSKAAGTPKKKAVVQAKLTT", "assay": "fluorescence anisotropy; 20 mM pyrophosphate pH 7.0; more similar to F2 than F1; FA: 50 mM Tris-HCl pH 7, 150 uM ZnSO4, 4 mM DTT, 0-200 mM NaCl, 25 C, 10 nM DNA (mutants 25 nM DNA, 25 mM NaCl); EMSA: 50 mM Tris-HCl pH 7.4, 150 uM ZnSO4, 4 mM DTT, 10% glycerol, RT incubation, gel at 4 C; NMR complexes: 50 mM Tris pH 7.0, 150 uM ZnSO4, 4 mM DTT, 37 C"}, "[8]": {"molecular_target": "T1, PARP-1 F1+F2 (24-kDa DBD)", "assay": "fluorescence anisotropy; 200; 50 mM Tris-HCl pH 7.0, 150 uM ZnSO4, 4 mM DTT, 25 C; NaCl 0-200 mM (T2, as in cof; 10 nM DNA) or 25 mM (T3 mutants; 25 nM DNA)"}}}
{"binder": "CGGTCGATCGTAAGATCGACCGGCGCTGGAGCTTGCTCCAGCGC (structured_DNA, 5'-phosphate)", "note": "[44-nt nicked dumbbell, 5'-phosphate, fluorescein-dT]", "values": [{"measurement": "Kd", "setting": "[1]", "result": 8.02, "unit": "nM"}, {"measurement": "Kd", "setting": "PARP-1 F2 [2]", "result": 130, "unit": "nM"}, {"measurement": "Kd", "setting": "[3]", "result": 24.6, "unit": "nM"}, {"measurement": "Kd", "setting": "[4]", "result": 5.7, "unit": "nM"}, {"measurement": "Kd", "setting": "PARP-1 F2 K131I", "result": 1570, "unit": "nM"}, {"measurement": "Kd", "setting": "PARP-1 F2 K142I", "result": 1180, "unit": "nM"}, {"measurement": "Kd", "setting": "PARP-1 F2 K141I/K142I", "result": 3930, "unit": "nM"}, {"measurement": "Kd", "setting": "[5]", "result": 9.37, "unit": "nM"}, {"measurement": "Kd", "setting": "PARP-1 F2 [6]", "result": 146, "unit": "nM"}, {"measurement": "binding result", "setting": "[7]", "result": "binds"}, {"measurement": "Kd", "setting": "[8]", "result": 45.4, "unit": "nM"}]}
